Experiment [1] addresses membrane-bound human HVEM on Promega bioassay cells (NFκB-RE-luc human HVEM HEK293 reporter cells; CHO-K1 Activator cells) (human) (UniProt Q92956). Put plainly: cell-based or functional assay.
Experiment [2] shares this target. Put plainly: flow cytometry, 1:20, NFκB-RE-luc HVEM reporter cells. On the technique in general: A flow cytometer gives signals particle by particle.
Experiment [3] addresses membrane-bound full-length human HVEM on stable HVEM-transfected HEK293F cells (clone no. 128) (human) (UniProt Q92956). Put plainly: flow cytometry, 1:20, HEK293F clone no. 128.
Experiment [4] deals with T1, membrane-bound full-length human HVEM on stable HVEM-transfected HEK293F cells (clone no. 128) (human, UniProt Q92956 39-283).
T1 construct: The same cDNA was also expressed on Sf9 insect cells; also called TNFRSF14; CD270
T1 sequence: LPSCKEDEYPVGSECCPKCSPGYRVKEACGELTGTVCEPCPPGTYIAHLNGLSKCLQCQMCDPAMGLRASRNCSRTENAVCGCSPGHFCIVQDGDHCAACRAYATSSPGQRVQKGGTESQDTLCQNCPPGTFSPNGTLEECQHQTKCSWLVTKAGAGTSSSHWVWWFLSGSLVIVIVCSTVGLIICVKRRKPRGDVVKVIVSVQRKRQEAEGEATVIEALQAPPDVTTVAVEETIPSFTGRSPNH
Put plainly: FACS, his-LIGHT pre-bound, then Ab 20 µg/mL. Here is the method: Generation of human ‘full-length’ HVEM-transfected HEK293F cells (clone no. 128) is described in Example 1a. Displacement of pre-bound soluble human BTLA, soluble human CD160, soluble human LIGHT, and soluble human TNFβ from surface human HVEM-transfected cells was analysed by FACS analysis. To this end, stable human full-length HVEM-transfected HEK293F cells were put at 10×10⁶ cells/mL in ice-chilled phosphate-buffered saline containing 0.1% BSA (Sigma)/0.05% NaN₃ (PBS/BSA/NaN₃) supplemented with 50 μg/mL human IgGs (blocking possible Fcγ receptors; Sigma) for 10 minutes at 4° C. Then, 10 μL/tube (i.e., 0.1×10⁶ cells) of these cells were incubated without or with 50 μL soluble biotinylated human BTLA-human Fcγ fusion protein (Sino Biological Inc) at 2 μg/mL/tube, with soluble his-tagged human CD160 (Sino Biological Inc) at 20 μg/mL/tube, with soluble his-tagged human LIGHT (Sino Biological Inc) at 2 μg/mL/tube, or with soluble biotinylated human TNFβ (Sino Biological Inc) at 0.2 μg/mL/tube in PBS/BSA/NaN₃ for 30 minutes at 4° C. After this (i.e., without washing), cells were subsequently incubated with 50 μL purified chimeric mouse/human anti-HVEM antibody at 20 μg/mL/tube or a human IgG4/κ (Sigma) negative isotype control at 20 μg/mL/tube for 30 minutes at 4° C. After extensive washing in PBS/BSA/NaN₃, cells were incubated with 1:200 diluted PE-conjugated streptavidin (detection BTLA and TNFβ; Jackson ImmunoResearch) or with biotinylated mouse anti-his antibody (detection CD160 and LIGHT; R&D Systems) at 10 μg/mL for 30 minutes at 4° C. […] Residual binding of ligands BTLA, CD160, LIGHT and TNFβ on membrane human HVEM was measured using a flow cytometer (model FACSCalibur; BD Biosciences).

Experiment [5] addresses T1, membrane-bound full-length human HVEM …. Put plainly: FACS, biotinylated BTLA-Fc pre-bound, then Ab 20 µg/mL. Here is the method:
(§1) Generation of human ‘full-length’ HVEM-transfected HEK293F cells (clone no. 128) is described in Example 1a. Displacement of pre-bound soluble human BTLA, soluble human CD160, soluble human LIGHT, and soluble human TNFβ from surface human HVEM-transfected cells was analysed by FACS analysis. To this end, stable human full-length HVEM-transfected HEK293F cells were put at 10×10⁶ cells/mL in ice-chilled phosphate-buffered saline containing 0.1% BSA (Sigma)/0.05% NaN₃ (PBS/BSA/NaN₃) supplemented with 50 μg/mL human IgGs (blocking possible Fcγ receptors; Sigma) for 10 minutes at 4° C. Then, 10 μL/tube (i.e., 0.1×10⁶ cells) of these cells were incubated without or with 50 μL soluble biotinylated human BTLA-human Fcγ fusion protein (Sino Biological Inc) at 2 μg/mL/tube, with soluble his-tagged human CD160 (Sino Biological Inc) at 20 μg/mL/tube, with soluble his-tagged human LIGHT (Sino Biological Inc) at 2 μg/mL/tube, or with soluble biotinylated human TNFβ (Sino Biological Inc) at 0.2 μg/mL/tube in PBS/BSA/NaN₃ for 30 minutes at 4° C. After this (i.e., without washing), cells were subsequently incubated with 50 μL purified chimeric mouse/human anti-HVEM antibody at 20 μg/mL/tube or a human IgG4/κ (Sigma) negative isotype control at 20 μg/mL/tube for 30 minutes at 4° C. […] After extensive washing in PBS/BSA/NaN₃, cells were incubated with 1:200 diluted PE-conjugated streptavidin (detection CD160 and LIGHT; Jackson ImmunoResearch) for 30 minutes at 4° C. After extensive washing in PBS/BSA/NaN₃, cells were fixed in 4% formaldehyde in PBS/BSA/NaN₃ for 30 minutes at 4° C. Residual binding of ligands BTLA, CD160, LIGHT and TNFβ on membrane human HVEM was measured using a flow cytometer (model FACSCalibur; BD Biosciences).

Experiment [6] shares this target. Put plainly: FACS titration on HVEM-HEK293F, half-maximum binding. Here is the method:
In order to determine the relative binding affinity of purified BTLA/HVEM blocking chimeric mouse/human anti-human HVEM antibodies no. 36H12, 45H6, 48H6, 11H7, and 49G4 for human HVEM, FACS analysis was used.
To this end, stable human full-length HVEM-transfected HEK293F cells (clone no. 128; see Example 1(a) above) were put at 10×10⁶ cells/mL in ice-chilled PBS containing 0.1% BSA (Sigma)/0.05% NaN₃ (PBS/BSA/NaN₃) supplemented with 50 μg/mL human IgGs (blocking possible Fcγ receptors; Sigma) for 10 minutes at 4° C. Then, 10 μL/tube (i.e., 0.1×10⁶ cells) of these cells were incubated with or without 100 μL titrated (in PBS/BSA/NaN₃) purified BTLA/HVEM blocking chimeric mouse/human anti-human HVEM antibody/tube for 30 minutes at 4° C. After extensive washing in PBS/BSA/NaN₃, cells were subsequently incubated with 1:200 diluted PE-conjugated goat anti-human IgG Fcγ-specific antibodies (Jackson ImmunoResearch) for 30 minutes at 4° C. After extensive washing in PBS/BSA/NaN₃, cells were fixed in 4% formaldehyde in PBS/BSA/NaN₃ for 30 minutes at 4° C. Binding (geo-mean fluorescence intensity) of chimeric mouse/human anti-human HVEM antibodies no. 36H12, 45H6, 48H6, 11H7, and 49G4 on membrane human HVEM was measured using a flow cytometer (FACSCalibur; BD Biosciences). For comparison, purified BTLA/HVEM blocking mouse anti-human HVEM antibody counterparts no. 36H12, 45H6, 48H6, 11H7, and 49G4 were run in parallel, and their binding was monitored as described in Example 2 (a).

For experiment [7] the target is unchanged. Put plainly: FACS, Ab 10 µg/mL then biotinylated BTLA on HVEM-HEK293F. Here is the method: (§2) Generation of human ‘full-length’ HVEM-transfected HEK293F cells (clone no. 128) is described in Example 1a. Binding of soluble human BTLA, of soluble human CD160, of soluble human LIGHT, and of soluble human TNFβ on surface human HVEM-transfected cells was analysed by FACS analysis. To this end, stable human full-length HVEM-transfected HEK293F cells were put at 10×10⁶ cells/mL in ice-chilled phosphate-buffered saline containing 0.1% BSA (Sigma)/0.05% NaN₃ (PBS/BSA/NaN₃) supplemented with 50 μg/mL human IgGs (blocking possible Fcγ receptors; Sigma) for 10 minutes at 4° C. Then, 10 μL/tube (i.e., 0.1×10⁶ cells) of these cells were incubated with or without 100 μL purified chimeric mouse/human anti-HVEM antibody at 10 μg/mL/tube or a human IgG4/κ (Sigma) negative isotype control at 10 μg/mL/tube for 30 minutes at 4° C. After this (i.e., without washing), cells were subsequently incubated with 1 μg/mL soluble biotinylated human BTLA (Sino Biological Inc), with 10 μg/mL soluble his-tagged human CD160 (Sino Biological Inc), with 1 μg/mL soluble his-tagged human LIGHT (Sino Biological Inc), or with 0.1 μg/mL soluble biotinylated human TNFβ (Sino Biological Inc) in PBS/BSA/NaN₃ for 30 minutes at 4° C. After extensive washing in PBS/BSA/NaN₃, cells were incubated with 1:200 diluted PE-conjugated streptavidin (detection BTLA and TNFβ; Jackson ImmunoResearch) or with biotinylated mouse anti-his antibody (detection CD160 and LIGHT; R&D Systems) at 10 μg/mL for 30 minutes at 4° C. After extensive washing in PBS/BSA/NaN₃, cells were incubated with 1:200 diluted PE-conjugated streptavidin (detection CD160 and LIGHT; Jackson ImmunoResearch) for 30 minutes at 4° C. After extensive washing in PBS/BSA/NaN₃, cells were fixed in 4% formaldehyde in PBS/BSA/NaN₃ for 30 minutes at 4° C. Binding of ligands BTLA, CD160, LIGHT and TNFβ on membrane human HVEM was measured using a flow cytometer (model FACSCalibur; BD Biosciences). For comparison, purified BTLA/HVEM blocking mouse anti-human HVEM antibody counterparts no. 36H12, 45H6, 48H6, 11H7, and 49G4 at 10 μg/mL/tube and a mouse IgG1 (BD Biosciences) negative isotype control at 10 μg/mL/tube were run in parallel.

Experiment [8] shares this target. Put plainly: FACS, biotinylated TNFβ pre-bound, then Ab 20 µg/mL. Here is the method: as §1
For experiment [9] the target is unchanged. Put plainly: FACS, Ab 10 µg/mL then biotinylated TNFβ on HVEM-HEK293F. Here is the method:
as §2

In [1], “soluble his-tagged human LIGHT (R&D Systems) (ligand)” registered an EC80 of LIGHT-induced NFκB-RE-luc activation of 0.3 µg/mL.

Regarding “phycoerythrin (PE)-conjugated mouse anti-human HVEM antibody (clone eBioHVEM-122; eBioscience)”, the signal to noise ratio in [2] is less than 5; in [3], 1000.

B1: chimeric mouse/human IgG4/kappa anti-human HVEM antibody no. 49G4 (antibody, V domains shown)
VH: EVQLQQSGAELVKPGASVKLSCRASGFNIKDTYMHWVKQRPEQGLEWIGRIDPARGNTKYDPKFQGKATITADTSSNTAYLQLSSLTSEDTAVYYCASAMDYWGQGTSVTVSS
VL: DVLMTQTPLSLPVSLGDQASISCRSSQSIVHSNGNTYLEWFLQKPGQSPKLLIYKVSNRFSGVPDRFSGSGSGTDFTLKISRVEAEDLGVYYCFQGSHVPLTFGAGTKLELKR
notes: 48/49 within the entry; Stabilized human IgG4 (S239P) already in the entry; also called chimeric 49G4
As a reminder, the EC50 is the concentration that produces a half-maximal response. A lower EC50 goes with an effect from little substance. B1: the “% displacement of pre-bound ligand” value in [4] was less than 20%; in [5] it was greater than 95%; in experiment [8], greater than 55%. Besides, the half-maximal effective concentration (EC50) in experiment [6] came out at 0.312 µg/mL. For the same molecule, the “% blocking of ligand binding” value is greater than 95% in experiment [7] and greater than 80% in experiment [9].

B2: chimeric mouse/human IgG4/kappa anti-human HVEM antibody no. 36H12 (antibody, V domains shown)
VH: EVQLQQSGAGLVKPGASVKLSCTASGFNIKDTYMHWVRQRPEQGLEWIGRIDPATANTKYDPKFQGKATLTTDTSSNTAYLQLSSLTSEDTAVYYCVTYGYDVSWFAYWGLGALVTVSA
VL: DVLMTQTPLSLPVSLGDQASISCRSSQSIVHSNGITYLEWYLQKPGQSPKLLIYKVSNRFSGVPDRFSGSGSGTDFTLKISRVEAEDLGVYYCFQGSHVPLTFGAGTKLELKR
notes: 16/17 within the entry; Stabilized human IgG4 (S239P) already in the entry; also called chimeric 36H12
For the molecule B2, the “% displacement of pre-bound ligand” value is less than 20% in [4], greater than 95% in experiment [5] and greater than 90% in experiment [8]. Besides, in experiment [6], a half-maximal effect (EC50) was put at 0.433 µg/mL. For the same molecule, the “% blocking of ligand binding” value in experiment [7] was greater than 95%; in experiment [9], greater than 94%.

B3: chimeric mouse/human IgG4/kappa anti-human HVEM antibody no. 45H6 (antibody, V domains shown)
VH: DVQLVESGGGLVQPGGSRKLSCAASGFTFSSFGMHWVRQAPEKGLEWVAYISSGNSNIYYVDTVKGRFTISRDNPKNTLFLQMTSLRSEDTAMYYCARKRAYGDYSGFSMDYWGQGTSVTVSS
VL: DIVMTQSQKFMSTSVGDRVSVTCKASQNVDTNVAWYQQKPGQSPKALIYSASYRYSGVPDRFTGSGSGTDFTLTISNVQSEDLAEYFCQQYNKFPLTFGGGTKLEIKR
notes: 24/25 within the entry; Stabilized human IgG4 (S239P) already in the entry; also called chimeric 45H6
For the molecule B3, the “% displacement of pre-bound ligand” value is less than 20% in experiment [4], greater than 95% in experiment [5] and greater than 90% in experiment [8]. In experiment [6], this molecule yielded a concentration giving a half-maximal response (EC50) of 0.306 µg/mL. The results for the “% blocking of ligand binding” value in experiment [7] and in experiment [9] were greater than 95% and greater than 94%, respectively.

The values above are taken from patent US20230052646A1 (JJP BIOLOGICS SP Z O O, published 2023).
